Experimental data reported in patent US20040071694A1.

Molecular target: biotinylated EpoR (Abbott CHO cell derived ref.# RB69084:4) (UniProt P19235)
Assay: immunofluorescence microscopy on EpoR-coated sheep red blood cells

biotinylated EpoR (Abbott CHO cell derived ref.# RB69084:4), sequence (P19235 25-250 limits assumed): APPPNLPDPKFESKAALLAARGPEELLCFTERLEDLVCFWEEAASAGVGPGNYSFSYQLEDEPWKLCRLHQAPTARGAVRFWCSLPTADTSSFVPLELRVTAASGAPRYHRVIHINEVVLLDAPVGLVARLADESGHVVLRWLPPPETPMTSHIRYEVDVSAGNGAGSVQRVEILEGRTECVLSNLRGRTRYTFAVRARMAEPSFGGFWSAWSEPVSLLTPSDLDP

immunofluorescence score (arbitrary scale of 0-4) (score out of 4): 4
Substance: murine antiEpoR antibody (R&D Systems Cat.# MAB307)
